Numbering of substitutions follows the chain as printed. Names may count otherwise.

For this series, the target named is methylated PP2A A-C hetero-dimer (bovine brain, methylated in vitro with PMT and H^3-SAM), Q32PI5.
methylated PP2A A-C hetero-dimer (bovine brain, methylated in vitro with PMT and H^3-SAM), Q32PI5, sequence (Q32PI5 2-589, chain 1 of 2): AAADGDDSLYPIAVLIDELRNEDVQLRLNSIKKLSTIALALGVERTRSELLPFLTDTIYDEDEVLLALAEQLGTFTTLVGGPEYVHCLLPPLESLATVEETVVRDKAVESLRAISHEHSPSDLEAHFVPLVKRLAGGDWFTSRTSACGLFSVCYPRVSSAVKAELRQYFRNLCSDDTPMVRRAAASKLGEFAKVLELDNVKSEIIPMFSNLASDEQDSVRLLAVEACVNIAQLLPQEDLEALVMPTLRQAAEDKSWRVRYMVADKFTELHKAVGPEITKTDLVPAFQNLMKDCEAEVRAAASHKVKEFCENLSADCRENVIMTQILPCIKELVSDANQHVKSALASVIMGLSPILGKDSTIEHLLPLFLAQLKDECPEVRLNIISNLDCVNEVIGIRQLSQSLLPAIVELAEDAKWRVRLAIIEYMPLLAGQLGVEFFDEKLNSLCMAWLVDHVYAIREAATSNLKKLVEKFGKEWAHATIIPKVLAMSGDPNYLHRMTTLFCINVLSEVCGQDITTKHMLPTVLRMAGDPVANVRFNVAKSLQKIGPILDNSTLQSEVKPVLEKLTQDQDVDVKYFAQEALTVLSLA
methylated PP2A A-C hetero-dimer (bovine brain, methylated in vitro with PMT and H^3-SAM), Q32PI5, sequence (chain, as listed by the source, chain 2 of 2): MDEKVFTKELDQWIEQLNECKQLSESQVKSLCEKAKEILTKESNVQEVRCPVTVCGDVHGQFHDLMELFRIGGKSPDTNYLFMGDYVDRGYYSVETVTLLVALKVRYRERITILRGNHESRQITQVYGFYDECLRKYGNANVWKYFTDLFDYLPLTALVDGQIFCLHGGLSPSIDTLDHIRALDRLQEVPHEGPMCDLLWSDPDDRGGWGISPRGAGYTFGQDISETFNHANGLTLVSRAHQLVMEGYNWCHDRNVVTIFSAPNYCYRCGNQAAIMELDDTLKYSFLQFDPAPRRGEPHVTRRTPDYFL

B1: trypsin-resistant structural core of PME (protein)
chain 1: RDFSPVPWSQYFESMEDVEVENETGKDTFRVYKSGSEGPVLLLLHGGGHSALSWAVFTAAIISRVQCRIVALDLRSHGETKVKNPEDLSAETMAKDVGNVVEAMYGDLPPPIMLIGHSMGGAIAVHTASSNLVPSLLGLCMIDVVEGTAMDALNSMQNFLRGRPKTFKSLENAIEWSVKSGQIRNLESARVSMVGQVKQCEGITSPEGSK
chain 2: KEDDMETKKDHPYTWRIELAKTEKYWDGWFRGLSNLFLSCPIPKLLLLAGVDRLDKDLTIGQMQGKFQMQVLPQCGHAVHEDAPDKVAEAVATFLIRHRFAEPIGGFQCVFPGC
On to B1, for which the “methyl esterase activity (release of H^3-methanol)” value is listed as “the PME core exhibits a similar methyl esterase activity to that of the full-length PME”.

B2: PME S156A mutant (protein)
chain: MSALEKSMHLGRLPSRPPLPGSGGSQSGAKMRMGPGRKRDFSPVPWSQYFESMEDVEVENETGKDTFRVYKSGSEGPVLLLLHGGGHSALSWAVFTAAIISRVQCRIVALDLRSHGETKVKNPEDLSAETMAKDVGNVVEAMYGDLPPPIMLIGHAMGGAIAVHTASSNLVPSLLGLCMIDVVEGTAMDALNSMQNFLRGRPKTFKSLENAIEWSVKSGQIRNLESARVSMVGQVKQCEGITSPEGSKSIVEGIIEEEEEDEEGSESISKRKKEDDMETKKDHPYTWRIELAKTEKYWDGWFRGLSNLFLSCPIPKLLLLAGVDRLDKDLTIGQMQGKFQMQVLPQCGHAVHEDAPDKVAEAVATFLIRHRFAEPIGGFQCVFPGC
On to B2, for which the “enzyme activity (methyl esterase, release of H^3-methanol)” value (“enzyme activity” below) is “mutation of Ser156 to alanine completely abolished the enzyme activity”.

B3: full-length PP2A methyl esterase (PME) (protein)
chain: B2 chain with A156S
Turning to B3, the “methyl esterase activity (release of H^3-methanol)” value was “the PME core exhibits a similar methyl esterase activity to that of the full-length PME”.

B4: PME S156C mutant (protein)
chain: B2 chain with A156C
In the case of B4, the “enzyme activity” value is “mutation to threonine and cysteine retained 10% and 40% of the enzyme activity, respectively”.

B5: PME S156T mutant (protein)
chain: B2 chain with A156T
For the protein B5, the “enzyme activity” value was “mutation to threonine and cysteine retained 10% and 40% of the enzyme activity, respectively”.

The values above are taken from patent US20080021198.
